For this test, the target named is T1, MET928 (cMET protein derived from construct 25-928) (human, UniProt P08581 25-928).
T1 construct: MET ectodomain, residues 1-24 are the leader; produced in Lec 8 cells; background text says the ectodomain is furin-cleaved into alpha (25-307) and beta chains; biotinylated form used in selections; also called MET928 extracellular domain; Met extracellular domain
Description: ELISA, soluble scFv.

Numbering of substitutions follows the chain as printed.

T1 sequence (P08581 25-928): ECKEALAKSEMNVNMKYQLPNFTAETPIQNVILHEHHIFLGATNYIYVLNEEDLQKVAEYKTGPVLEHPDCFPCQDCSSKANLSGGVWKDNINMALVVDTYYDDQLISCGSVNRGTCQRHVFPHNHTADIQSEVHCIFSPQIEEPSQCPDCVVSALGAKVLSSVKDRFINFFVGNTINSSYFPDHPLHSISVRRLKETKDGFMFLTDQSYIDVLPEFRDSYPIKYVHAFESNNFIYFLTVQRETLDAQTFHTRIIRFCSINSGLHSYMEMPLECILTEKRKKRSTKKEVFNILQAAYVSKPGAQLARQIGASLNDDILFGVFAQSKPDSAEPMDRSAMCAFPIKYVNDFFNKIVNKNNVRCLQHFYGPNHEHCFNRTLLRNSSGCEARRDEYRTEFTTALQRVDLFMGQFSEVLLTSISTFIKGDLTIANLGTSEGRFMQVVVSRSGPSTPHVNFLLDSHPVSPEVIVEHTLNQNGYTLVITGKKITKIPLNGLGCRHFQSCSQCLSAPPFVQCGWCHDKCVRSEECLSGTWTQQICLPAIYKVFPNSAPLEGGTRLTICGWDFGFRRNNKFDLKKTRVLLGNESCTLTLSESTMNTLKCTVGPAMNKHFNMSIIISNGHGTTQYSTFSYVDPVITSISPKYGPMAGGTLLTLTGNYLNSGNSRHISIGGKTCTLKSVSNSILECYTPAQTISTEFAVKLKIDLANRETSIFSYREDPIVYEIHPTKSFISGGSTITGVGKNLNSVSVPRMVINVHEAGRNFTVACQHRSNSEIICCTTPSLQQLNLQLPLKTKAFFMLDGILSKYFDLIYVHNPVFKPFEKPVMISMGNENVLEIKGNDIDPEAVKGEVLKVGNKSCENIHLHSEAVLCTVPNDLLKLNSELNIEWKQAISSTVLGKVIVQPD

B1: 112_H2 (scFv)
scFv: QMQLVQSGAEVKKPGAPVKVSCKVSGYTFTDYYMHWVQQAPGKGLEWMGLVDPEDGETIYAEKFQGRVTITADTSTDTAYMELSSLRSEDTAVYYCATDATTPYWGMQVWGQGTLVTVSSLEGGGGSGGGGSGGGASDIQMTQSPSSLSASVGDRVTITCQASQDISNYLNWYQQKPGRAPKVLIYDASNLETGVPSRFSGSGSGTEFTLTISNLRPDDFATYYCQQGDSFPLTFGGGTKVEIK
notes: not shown: 6xHis/tri-FLAG tags
With B1, the binding result is reported as “binds”.

B2: 108_D3 (scFv)
scFv: B1 scFv with G106F, M107P, Q108Y
notes: as for B1
For B2, the binding result is on record as “binds”.

B3: 108_D2 (scFv)
scFv: B1 scFv with G106A, M107P, Q108W
notes: as for B1
With B3, the binding result is reported as “binds”.

B4: 108_D9 (scFv)
scFv: B1 scFv with G106Y, M107P, Q108Y
notes: as for B1
B4: the binding result is given as “binds”.

B5: 107_B6 (scFv)
scFv: B1 scFv with V109K
notes: as for B1
As to B5, the binding result is listed as “binds”.

B6: 107_A5 (scFv)
scFv: B1 scFv with Q108S, V109K
notes: as for B1
B6: the binding result is “binds”.

B7: 107_C6 (scFv)
scFv: B1 scFv with Q108S
notes: as for B1
On to B7, for which the binding result is reported as “binds”.

B8: 107_A10 (scFv)
scFv: B1 scFv with V109E
notes: as for B1
As for B8, the binding result is on record as “binds”.

B9: 107_A11 (scFv)
scFv: B1 scFv with Q108A, V109W
notes: as for B1
B9: the binding result is reported as “binds”.

B10: 107_A12 (scFv)
scFv: B1 scFv with G106W, Q108A, V109K
notes: as for B1
With B10, the binding result is “binds”.

B11: 108_D4 (scFv)
scFv: B1 scFv with Q108S, V109G
notes: as for B1
Regarding B11, the binding result is “binds”.

B12: 107_B4 (scFv)
scFv: B1 scFv with G106F, M107P, Q108N
notes: as for B1
With B12, the binding result is listed as “binds”.

B13: 107_B8 (scFv)
scFv: B1 scFv with Q108A, V109E
notes: as for B1
Consider B13, for which the binding result is “binds”.

B14: 107_A3 (scFv)
scFv: B1 scFv with P103A, V109K
notes: as for B1
B14: the binding result is listed as “binds”.

B15: 108_D7 (scFv)
scFv: B1 scFv with Q108D, V109M
notes: as for B1
For the molecule B15, the binding result is listed as “binds”.

B16: 108_D11 (scFv)
scFv: B1 scFv with M107A, Q108A, V109A
notes: as for B1
In the case of B16, the binding result is “binds”.

B17: 107_B2 (scFv)
scFv: B1 scFv with V109M
notes: as for B1
As for B17, the binding result is listed as “binds”.

B18: 108_C8 (scFv)
scFv: B1 scFv with G106F, M107P, Q108Y, V109I
notes: as for B1
B18: the binding result is “binds”.

B19: 107_B11 (scFv)
scFv: B1 scFv with Q108A, V109M
notes: as for B1
Take B19: the binding result is reported as “binds”.

B20: 108_C11 (scFv)
scFv: B1 scFv with G106F, M107P, Q108I, V109I
notes: as for B1
B20: the binding result was “binds”.

B21: 107_A6 (scFv)
scFv: B1 scFv with G106T, M107P, Q108F
notes: as for B1
On to B21, for which the binding result was “binds”.

B22: 107_B7 (scFv)
scFv: B1 scFv with G106C, Q108R, V109A
notes: as for B1
In the case of B22, the binding result is “binds”.

B23: 108_D5 (scFv)
scFv: B1 scFv with G106S, M107P, Q108H, V109T
notes: as for B1
In the case of B23, the binding result is recorded as “binds”.

B24: 107_A2 (scFv)
scFv: B1 scFv with V109S
notes: as for B1
For the molecule B24, the binding result is listed as “binds”.

B25: 108 E2 (scFv)
scFv: B1 scFv with G106T, M107P, Q108W
notes: as for B1
With B25, the binding result is “binds”.

B26: 107_A4 (scFv)
scFv: B1 scFv with G106F, M107P, Q108Y, V109H
notes: as for B1
As for B26, the binding result is reported as “binds”.

B27: 107_C5 (scFv)
scFv: B1 scFv with G106Y, M107P, Q108I
notes: as for B1
For the molecule B27, the binding result was “binds”.

B28: 107_B3 (scFv)
scFv: B1 scFv with Q108K, V109M
notes: as for B1
Regarding B28, the binding result is given as “binds”.

B29: 108_C12 (scFv)
scFv: B1 scFv with Q108A, V109S
notes: as for B1
Regarding B29, the binding result is reported as “binds”.

B30: 107_C2 (scFv)
scFv: B1 scFv with Q108V, V109K
notes: as for B1
In the case of B30, the binding result was “binds”.

B31: 107_C4 (scFv)
scFv: B1 scFv with G106S, M107P, Q108W, V109M
notes: as for B1
Consider B31, for which the binding result is given as “binds”.

B32: 107_B1 (scFv)
scFv: B1 scFv with T102H, P103I, G106N, Q108D, V109I
notes: as for B1
Turning to B32, the binding result was “binds”.

B33: 108_D10 (scFv)
scFv: B1 scFv with Q108S, V109H
notes: as for B1
With B33, the binding result is “binds”.

B34: 107_C1 (scFv)
scFv: B1 scFv with Q108S, V109M
notes: as for B1
For the molecule B34, the binding result was “binds”.

B35: 107_B10 (scFv)
scFv: B1 scFv with Q108R
notes: as for B1
For B35, the binding result is “binds”.

B36: 107_B12 (scFv)
scFv: B1 scFv with Q108T, V109A
notes: as for B1
With B36, the binding result was “binds”.

B37: 108_D1 (scFv)
scFv: B1 scFv with G106T, M107P, Q108W, V109K
notes: as for B1
With B37, the binding result is reported as “binds”.

B38: 107_B5 (scFv)
scFv: B1 scFv with V109I
notes: as for B1
On to B38, for which the binding result is “binds”.

B39: 107_A9 (scFv)
scFv: B1 scFv with Q108M, V109T
notes: as for B1
On to B39, for which the binding result is listed as “binds”.
